Test results taken from US20190202901A1 (PIERRE FABRE MEDICAMENT, published 2019).
Where two headings read alike, the source gives them in different places. Each block holds one binder with its values, some of them ahead of it.

How the values were obtained:
[1] = target: T1, soluble recombinant human IGF-1R hetero-tetramer with C-terminal 10-His tag (R&D Systems 305-GR-50) (human, UniProt P08069 31-736; P08069 741-932); assay: SPR Biacore X100, Ln(2)/koff
T1 construct: domain: alpha chain;domain: extracellular domain of the beta chain; Captured on an anti-His antibody chip; also called recombinant soluble human-IGF-1R; h-IGF-1R
Experimental: (§1) The dissociation constants (KD) of the binding of the antibodies on a recombinant soluble human-IGF-1R were defined by the ratio between the dissociation rate (koff) and the association rate (kₒₙ). The kinetic experiments were run on a Biacore X100 device using a CM5 sensor chip activated by a mouse anti-Tag His monoclobnal antibody. Around 12000 RU of antibodies are chemically grafted on the carboxymethyldextan matrix using the amine kit chemistry.
(§2) The experiments were carried out at 25° C. with a flow rate of 30 μl/min using the HBS-EP+ buffer (GE Healthcare) as the running and sample dilution buffer.
The single cycle kinetic scheme was used to define the kinetic parameters of the binding of the anti-IGF-1R antibodies on a soluble recombinant human IGF-1R captured by its two C-terminal 10 Histidine-tag. [0637] 1—A solution of a soluble recombinant version of the human IGF-1R hetero-tetramere: 2a chains and the extracellular domains of 2β chains expressed with an additional C-terminal 10-His tag (R&D Systems catalogue number 305-GR-50) was injected during one minute on the second flowcell at a concentration of 10 μg/ml. […] [0638] 2—After the capture phase, either the running buffer was injected 5 times (90 s each injection) or a growing range of 5 concentrations of one of the six antibodies was injected (90 s each injection) on both flowcells. […]

[2] = target: T1, soluble recombinant human IGF-1R …; assay: SPR Biacore X100, single cycle kinetics, His-captured human IGF-1R (about 160 RU), 1:1 model
Experimental: (§3) The recognition experiments were run on a Biacore X100 device using a CM5 sensor chip activated by an anti-Tag His antibody (His capture kit GE Healthcare catalogue number 28-9950-56). More than 11000 RU of antibodies are chemically grafted on the carboxymethyldextan matrix using the amine kit chemistry. The experiments were carried out at 25° C. with a flow rate of 30 μl/min using the HBS-EP buffer (GE Healthcare) as the running and sample dilution buffer.
(§4) A solution of a soluble recombinant version of the IGF-1R hetero-tetramere composed of 2a chains and the extracellular domains of 2β chains expressed with an additional C-terminal 10-His tag, based either on the sequence of the human (R&D Systems catalogue number 305-GR-50) or of the one of cynomolgus (produced in house) was injected 1 minute on the second flowcell at a dilution defined to capture around 160 RU of antigen. […] At the end of the fifth injection the running buffer was passed in order to define the dissociation rate.
(§5) The resulting sensorgrams were analysed using the Biaevaluation software with a 1:1 model. […] The quality of the fitting was assessed by a Chi2/Rmax ratio lower than 0.05 RU.

[3] = target: T2, human IGF-1R, native, on cells (MCF-7, hIGF-1R transfected cells, tumor sections, primary normal cells) (human, UniProt P08069 31-1367); assay: cell-based or functional assay
[4] = target: T3, monkey IGF-1R on COS-7 cells (monkey (African green monkey)); assay: cell-based or functional assay
[5] = target: T4, soluble recombinant cynomolgus IGF-1R hetero-tetramer with C-terminal 10-His tag (produced in house) (cynomolgus monkey); assay: SPR Biacore X100, His-captured recombinant cynomolgus IGF-1R
T4 construct: domain: alpha chain;domain: extracellular domain of the beta chain; Produced in house; also called Macaca IGF-1R; soluble monkey IGF-1R ECD
Experimental: as §3, §4, §5

[6] = target: T1, soluble recombinant human IGF-1R …; assay: SPR Biacore X100, His-captured soluble h-IGF-1R (about 600 RU), mean of 4 experiments
Experimental: as §1, §2
The single cycle kinetic scheme was used to define the kinetic parameters of the binding of the anti-IGF-1R antibodies on a soluble recombinant human IGF-1R captured by its two C-terminal 10 Histidine-tag. [0637] 1—A solution of a soluble recombinant version of the human IGF-1R hetero-tetramere: 2a chains and the extracellular domains of 2β chains expressed with an additional C-terminal 10-His tag (R&D Systems catalogue number 305-GR-50) was injected during one minute on the second flowcell at a concentration of 10 μg/ml. […] [0638] 2—After the capture phase, either the running buffer was injected 5 times (90 s each injection) or a growing range of 5 concentrations of one of the six antibodies was injected (90 s each injection) on both flowcells. At the end of the fifth injection the running buffer was passed during 5 minutes in order to define the dissociation rate. [0639] 3—The surface was then generated with an injection of a 10 mM Glycine, HCl pH 1.5 buffer during 45 s.

[7] = target: T2, human IGF-1R, native, on cells (MCF-7, …); assay: cell-based or functional assay; remark: listed apart in the source
[8] = target: T1, soluble recombinant human IGF-1R …; assay: SPR Biacore X100, His-captured recombinant human IGF-1R
Experimental: as §3, §4, §5

[9] = target: T2, human IGF-1R, native, on cells (MCF-7, …); assay: cell-based or functional assay; remark: listed apart in the source
[10] = target: T3, monkey IGF-1R on COS-7 cells; assay: FACS titration on Cos-7 cells
Experimental: (§6) The binding properties of the humanized variants were evaluated by FACS analyses on the human MCF-7 breast adenocarcinoma cell line and the monkey cell line Cos-7 using increasing antibody concentrations. For that purpose, cells (1×10⁶ cells/ml) were incubated with anti-IGF-1R antibodies for 20 min. at 4° C. in FACS buffer (PBS, 0.1% BSA, 0.01% NaN3). They were then washed 3 times and incubated with the appropriate secondary antibody coupled with Alexa 488 for 20 additional minutes at 4° C. in the dark before being washed 3 times in FACS buffer. The binding of anti-IGF-1R antibodies was immediately performed on viable cells which were identified using propidium iodide (that stains dead cells). The EC₅₀ of binding expressed in molarity (M) was calculated using a nonlinear regression analysis (GraphPad Prims 4.0).

[11] = target: T5, human insulin receptor on cells (IM9 cells, hIR+ transfected cell line) (human, UniProt P06213 28-1382); assay: FACS titration on NIH 3T3 IR+ cells (human insulin receptor transfected), 4 C, secondary antibody, MFI
T5 construct: whole, on cells; also called human IR

[12] = target: T2, human IGF-1R, native, on cells (MCF-7, …); assay: FACS titration on MCF-7 cells
Experimental: as §6

[13] = target: T2, human IGF-1R, native, on cells (MCF-7, …); assay: FACS titration on MCF-7 cells, 4 C, secondary antibody, MFI; EC50 table inside the plot
[14] = target: T3, monkey IGF-1R on COS-7 cells; assay: FACS titration on COS-7 cells, 4 C, secondary antibody, MFI; EC50 table inside the plot

- half-life of the complex [1]: 2 to 3 h
- Kd [2]: 0.23 nM
- % internalization (MCF-7, 10 µg/ml, 4 h) [3]: 82%
- ΔMFI (MCF-7, 10 µg/ml, 4 h) [3]: 278 MFI
- % internalisation (monkey IGF-1R) [4]: 67%
- ΔMFI (monkey IGF-1R internalization) [4]: 52 MFI
- Kd [5]: ~0.2 nM
- Kd [6]: ~0.075 nM
- ΔMFI (MCF-7, 10 µg/ml, 4 h) [7]: 288 MFI
- Kd [8]: ~0.2 nM
- phosphorylation of hIGF-1R, % of phosphorylation induced by IGF-1 (MCF-7 cells, 10 µg/ml) [9]: < 10%
B1: c208F2 (antibody, human IgG1, kappa, V domains shown)
VH: QVQLQQSGPELVKPGASVKMSCKASGYTFTSYYIYWVKQRPGQGLEWLGWIWPGDGSTKYNEKFKDKTTLTADKSSNTAYMFLSSLTSEDSAVYFCASPMITPNYAMDYWGQGASVTVSS
VL: DIQMTQTTSSLSASLGDRVTISCRASQDISKYLNWYQQQPDGTIKLLIYYTSRLHSGVPSRFSGRGSGTDYSLTISNVEQEDIATYFCQQGSTLPYTFGGGTKLEIKR
notes: also called chimeric 208F2; chimeric form of the 208F2 second IGF-1R antibody

- half-life of the complex [1]: 2 to 3 h
- % internalization (MCF-7, 10 µg/ml, 4 h) [3]: 87%
- ΔMFI (MCF-7, 10 µg/ml, 4 h) [3]: 344 MFI
- EC50 [10]: 0.51 nM
- EC50 [12]: 0.709 nM
- Kd [6]: ~0.06 nM
- EC50 [13]: 0.71 nM
- EC50 [14]: 0.511 nM
B2: hz208F2 H026/L024 (antibody, human IgG1, kappa, V domains shown)
VH: QVQLVQSGAEVKKPGASVKMSCKASGYTFTSYYIYWVKQAPGQGLEWLGWIWPGDGSTKYNEKFQGRVTLTADKSSNTAYMFLSSLRSEDTAVYFCASPMITPNYAMDYWGQGTLVTVSS
VL: DIQMTQSPSSLSASVGDRVTISCRASQDISKYLNWYQQKPGKAPKLLIYYTSRLHSGVPSRFSGRGSGTDYSLTISNLQPEDFATYFCQQGSTLPYTFGGGTKVEIKR
notes: also called hz208F2 VH3/VL3; hz208F2 VH3VL3
- binding result [11]: no binding (tested: log [M] about -7.2 (about 6e-8 M))
